We go through two substances from article PMC10163058.

In test [1] the target is paired immunoglobulin-like receptor B (PirB), expressed on CHO cells (mouse) (UniProt P97484).
The target is the same in test [2]. This is another data set of the same source.
Test [3] has as its target His6-tagged recombinant PirB (Abcam #ab276923) (mouse) (UniProt P97484). The test is described as follows: atomic force microscopy (single-molecule force spectroscopy); His6-PirB held on Ni2+-NTA gold-coated model surfaces; AFM tips functionalised with T3SA- virions or σ3 through a PEG linker; virus buffer; koff from Bell-Evans fit of dynamic force spectroscopy, kon from binding probability against contact time (pseudo-first-order), KD calculated from both.

The substance “reovirus strain T3SA+ virions (from UniProt P03528 1-455; P07939 1-365) (complex)” displayed a tyrosine phosphorylation of immunoprecipitated myc-tagged PirB in CHO cells after T3SA+ adsorption (immunoblot with pTyr-specific mAb cocktail) in test [1] above 3 fold. For the same substance, the decrease in infection of primary murine cortical neurons (endogenous PirB) by T3SA+ (100 PFU/cell) after incubation with 5 μg/ml PirB-specific mAb 6C1, IFA in test [2] came to 50%.

As usually defined, the Kd is the free concentration of one partner at which half of the binding sites on the other are occupied at equilibrium, for simple one-to-one binding. A word on the koff: it is a measure of how fast the partners let go of each other. Broadly, the kon is the second-order rate constant of association. For the substance “reovirus strain T3SA- virions (from UniProt P03528 1-455; P07939 1-365) (complex)”, in test [3], the equilibrium dissociation constant (Kd) is 1.94 nM, the koff is 0.2 s⁻¹ and the kon was 1.03e+08 M⁻¹ s⁻¹.
